Measurements: the Immune Epitope Database (IEDB)

Key:
HLA-B*40:01 = test: IEDB peptide-MHC binding, purified MHC/direct/fluorescence; filed as Kd, often an IC50 or EC50 that approximates it; ≥ and ≤ were set here for values at or beyond the usual limits of such assays
HLA-A*69:01 [1] = test: as above
HLA-A*01:01 = test: as above
HLA-A*26:01 [2] = test: as above
HLA-B*07:02 = test: as above
HLA-B*18:01 = test: as above
HLA-A*24:02 = test: as above
HLA-B*46:01 [3] = test: as above
HLA-A*03:01 = test: as above
HLA-A*11:01 = test: as above
HLA-A*02:01 [4] = test: as above
HLA-B*44:02 = test: as above
HLA-B*08:01 = test: as above
HLA-B*15:01 [5] = test: as above
HLA-B*27:05 = test: as above
HLA-B*58:01 = test: as above
HLA-B*15:09 = test: as above
HLA-A*31:01 [6] = test: as above
HLA-B*39:01 = test: IEDB peptide-MHC binding, purified MHC/competitive/fluorescence; filed as Kd, often an IC50 or EC50 that approximates it; ≥ and ≤ were set here for values at or beyond the usual limits of such assays
HLA-B*48:01 = test: IEDB peptide-MHC binding, purified MHC/direct/fluorescence; filed as Kd, often an IC50 or EC50 that approximates it; ≥ and ≤ were set here for values at or beyond the usual limits of such assays; conditions: source organism: Mycobacterium tuberculosis
HLA-B*08:02 = test: as above
HLA-B*57:01 [7] = test: as above; conditions: source organism: Mycobacterium tuberculosis
HLA-B*51:01 [8] = test: as above; conditions: source organism: Mycobacterium tuberculosis
HLA-B*15:17 = test: as above; conditions: source organism: Mycobacterium tuberculosis
HLA-A*69:01 [9] = test: IEDB peptide-MHC binding, purified MHC/competitive/fluorescence; filed as Kd, often an IC50 or EC50 that approximates it; ≥ and ≤ were set here for values at or beyond the usual limits of such assays; conditions: source organism: Zaire ebolavirus
HLA-A*26:01 [10] = test: as above; conditions: source organism: Zaire ebolavirus
HLA-B*57:01 [11] = test: as above; conditions: source organism: Zaire ebolavirus
HLA-B*51:01 [12] = test: as above; conditions: source organism: Zaire ebolavirus
HLA-B*46:01 [13] = test: as above; conditions: source organism: Zaire ebolavirus
HLA-A*02:01 [14] = test: as above; conditions: source organism: Zaire ebolavirus
HLA-B*27:03 = test: as above; conditions: source organism: Zaire ebolavirus
HLA-B*15:01 [15] = test: as above; conditions: source organism: Zaire ebolavirus
HLA-A*02:12 = test: IEDB peptide-MHC binding, purified MHC/direct/fluorescence; filed as Kd, often an IC50 or EC50 that approximates it; ≥ and ≤ were set here for values at or beyond the usual limits of such assays; conditions: source organism: Zaire ebolavirus
HLA-A*02:03 = test: as above
HLA-A*68:02 = test: as above; conditions: source organism: Zaire ebolavirus
HLA-A*24:03 = test: as above; conditions: source organism: Zaire ebolavirus
HLA-A*02:19 = test: as above
HLA-A*29:02 = test: as above; conditions: source organism: Zaire ebolavirus
HLA-B*15:01 [16] = test: IEDB peptide-MHC binding, purified MHC/competitive/radioactivity; filed as Kd, often an IC50 or EC50 that approximates it; ≥ and ≤ were set here for values at or beyond the usual limits of such assays; conditions: source organism: Dengue virus 2 Jamaica/1409/1983
HLA-A*31:01 [17] = test: IEDB peptide-MHC binding, purified MHC/competitive/fluorescence; filed as Kd, often an IC50 or EC50 that approximates it; ≥ and ≤ were set here for values at or beyond the usual limits of such assays; conditions: source organism: Influenza A virus (A/Fort Monmouth/1/1947-mouse adapted(H1N1))
HLA-A*02:11 = test: IEDB peptide-MHC binding, purified MHC/direct/fluorescence; filed as Kd, often an IC50 or EC50 that approximates it; ≥ and ≤ were set here for values at or beyond the usual limits of such assays; conditions: source organism: Influenza A virus(A/swine/Henan/5/2004(H9N2))
[18] = source organism: Influenza A virus (A/Viet Nam/HN/2004(H5N1))
[19] = source organism: Influenza A virus (A/Puerto Rico/8/34/Mount Sinai(H1N1))
[20] = source organism: Influenza A virus (A/Hong Kong/507/97(H5N1))
[21] = source organism: Influenza A virus (A/Taiwan/2/2006(H1N1))
[22] = source organism: Mycobacterium tuberculosis
[23] = source organism: Mycobacterium tuberculosis C
[24] = source organism: Zaire ebolavirus
[25] = source organism: Influenza A virus (A/swine/Hong Kong/5190/99(H3N2))
[26] = source organism: Influenza A virus(A/swine/Henan/5/2004(H9N2))

Measured: Kd

FRNQVKIRR
≥ 20 µM: HLA-B*40:01; [18] | HLA-A*69:01 [1]; [18] | HLA-A*01:01; [18] | HLA-A*26:01 [2]; source organism: Influenza A virus(A/swine/Shandong/fNY/2003(H9N2)) | HLA-B*07:02; [18] | HLA-B*18:01; [18] | HLA-A*24:02; [18] | HLA-B*46:01 [3]; [18] | HLA-A*03:01; [18] | HLA-A*11:01; [18] | HLA-A*02:01 [4]; [18] | HLA-B*44:02; [18] | HLA-B*08:01; [18] | HLA-B*15:01 [5]; [18] | HLA-B*58:01; [18]
0.079 µM: HLA-B*27:05; [19]

GTSKIKMKW
≥ 20 µM: HLA-B*40:01; [20] | HLA-A*69:01 [1]; [20] | HLA-B*15:09; [21] | HLA-A*01:01; [20] | HLA-A*26:01 [2]; [21] | HLA-B*07:02; [20] | HLA-A*31:01 [6]; [20] | HLA-A*24:02; [20] | HLA-B*46:01 [3]; [20] | HLA-A*03:01; [20] | HLA-A*11:01; [20] | HLA-A*02:01 [4]; [20] | HLA-B*44:02; [20] | HLA-B*08:01; [20] | HLA-B*15:01 [5]; [20] | HLA-B*27:05; [20]
0.18 µM: HLA-B*58:01; [20]

KPARGGSSI
2.62 µM: HLA-B*51:01 [8]
≥ 20 µM: HLA-B*40:01; [22] | HLA-A*69:01 [1]; [22] | HLA-A*01:01; [22] | HLA-B*48:01 | HLA-B*08:02; [23] | HLA-A*26:01 [2]; [23] | HLA-B*57:01 [7] | HLA-A*31:01 [6]; [22] | HLA-B*18:01; [22] | HLA-B*46:01 [3]; [22] | HLA-A*03:01; [22] | HLA-A*11:01; [22] | HLA-A*02:01 [4]; [22] | HLA-B*15:01 [5]; [22] | HLA-B*27:05; [22] | HLA-B*58:01; [22] | HLA-B*15:17
2.76 µM: HLA-B*39:01; source organism: Parafrankia sp. EAN1pec

LEFNSSLAI
≥ 20 µM: HLA-A*69:01 [9] | HLA-A*26:01 [10] | HLA-B*57:01 [11] | HLA-B*51:01 [12] | HLA-B*46:01 [13] | HLA-A*02:01 [14] | HLA-B*39:01; [24] | HLA-B*27:03 | HLA-B*15:01 [15] | HLA-A*02:12 | HLA-A*02:03; [24] | HLA-A*68:02 | HLA-A*03:01; [24] | HLA-A*24:03 | HLA-A*02:19; [24] | HLA-A*29:02
0.0258 µM: HLA-B*40:01; source organism: Ebola virus - Gabon (1994-1997)

QLKGMSYSM
0.0539 µM: HLA-B*15:01 [16]
≥ 20 µM: HLA-B*08:02; source organism: Dengue virus 2 Thailand/16681/84

YMFESKSMK
≥ 20 µM: HLA-B*40:01; [25] | HLA-B*15:09; [26] | HLA-A*01:01; [25] | HLA-A*26:01 [2]; [26] | HLA-B*07:02; [25] | HLA-B*18:01; [25] | HLA-A*24:02; [25] | HLA-B*46:01 [3]; [25] | HLA-A*02:19; [26] | HLA-B*44:02; [25] | HLA-B*15:01 [5]; [25] | HLA-B*58:01; [25]
0.024 µM: HLA-A*02:03; [26]
0.003 µM: HLA-A*02:11
0.232 µM: HLA-A*03:01; [19]
0.478 µM: HLA-A*02:01 [4]; [19]
0.155 µM: HLA-B*27:05; [19]
0.0212 µM: HLA-A*31:01 [17]
